US20240252641A1 (TCR2 THERAPEUTICS, published 2024)
Positions count from the first letter of the chain named.

B1: 1E3 (antibody, V domains shown)
VH: QLQLQESGPGLVKPSETLSLTCTVSGASITSTSYYWNWIRQPPGKGLEWIGRISYSGSTYYNPSLKSRVTISVDTSKNQFSLKLSSVTATDTAVYYCARQIRYNWNPDTFDIWGQGTMVTVSS
VL: EIVMTQSPATLSVSPGERATLSCRASQSLNSNLAWYQQKPAQAPRLLIYGASTRATGIPARFSGSGSGTEFTLTISSLQSEDFAVYYCQQYDNWPLTFGGGTKVEIK
notes: alloy mouse hybridoma antibody; also called 1E3D9
B2: 13G6 (antibody, V domains shown)
VH: QVQLVESGGGVVQPGKSLRLSCAASGFTFSNYGIHWVRQAPGKGLEWVAVIWYDGSYKYYADSVKGRFTISRDNSKNTLYLQMNSLRAEDTALYYCARDTVDTYGSFDYWGQGTLVTVSS
VL: DIQLTQSPSFLSASVGDRVTITGRASQGISSYLAWYQQKPGKAPNLLIYAASTLQSGVPSRFSGSGSGTEFTLTISSLQPEDFATYYCQQHNRYPITFGQGTRLEIK
notes: alloy mouse hybridoma antibody; also called 13G6E8
B3: 4G7 (antibody, V domains shown)
VH: QVQLVESGGGVVQPGRSLRLSCAASGFTFSSYGLHWVRQAPGKGLDWVAVIWYDGSNKYYVDSVKGRFTISRDNSMNTLFLQMNSLRAEDTAVYYCARDEAAAAGAFDIWGQGTMVTVSS
VL: B2 VL with G23C, N45K, H91L, R93Y, P95S
notes: alloy mouse hybridoma antibody; also called 4G7E8
B4: 9A11 (antibody, V domains shown)
VH: QVQLVESGGGVVQPGRSLRLSCAASGFTFSNYGMYWVRQAPGKGLEWVAVIWYDGSKKYYGDSVKGRFTISRDNSKNTLYLQMNSLRAEDTAVYYCARDEDTVMASFDYWGQGTLVTVSS
VL: B2 VL with G23C, G28D, S31I, N45Q, Y87S, H91L, R93S, Q100G, R103K, L104V
notes: alloy mouse hybridoma antibody; also called 9A11E8
B5: 9B2 (antibody, V domains shown)
VH: QLQVVESGGGLMQPGGSLRLSCAASGFTFSGSAMSWVRQAPGKGLEWVSSIYSHSMYTYYADSVKSRFTISTDNAKNTLYLQMNSLKPDDTAVYYCAASSDYEGLFVSWGQGTQVTVSS
VL: QAVLTQPPSLSASPGSSVRLTCTLNSANSVGSYDISWYQQKAGSPPRYLLYYYSDSLSHQGSGVPSRFSGSTDASANAGLLLISGLQPEDEADYYCSAYNRGSHVFGGGTKLTVL
B6: 15F8 (antibody, V domains shown)
VH: EVQLVESGGGVVRPGGSLRLSCAASGFTFDDYGVSWVRQAPGRGLEWVSGINWNGGSTAYADSVKGRFTISRDSAKNSLYLQMDSLRAEDTALYYCAREEGSYYVWYFDIWGRGTLVTVSS
VL: DIQMTQSPSSLSASVGDRVTITCRPSQSISNYLNWYQQKPGKAPKVLIYASFILQSGVPSRFGGSGSGTDFTLTISSLQPEDFATYYCQQSYSNPFTFGPGTKVDIK
notes: alloy mouse hybridoma antibody; also called 15F8D8; 15F8D9
B7: 2F1 (antibody, V domains shown)
VH: EVQLVESGGVVVQPGGSLRLSCAASGFTFDDYTMHWVRQAPGKGLEWVSLVSWDGGSTYYADSVKGRFTTSRDNSKKFLYLQMNRLRTEDTALYFCAIDRAYRPYYYYHMDVWGKGTTVTVSS
VL: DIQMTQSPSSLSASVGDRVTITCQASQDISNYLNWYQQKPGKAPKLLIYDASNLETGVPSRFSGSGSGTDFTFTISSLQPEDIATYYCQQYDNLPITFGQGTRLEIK
notes: alloy mouse hybridoma antibody; also called 2F1F7
B8: 9A1 (antibody, V domains shown)
VH: QVQLVQSGAEVKKPGASVKVSCKASGYSFTGYYMHWVRQAPGQGLEWMGWINPKSGGTSYAQQFQGRVTMTRDTSMSTVYMELTRLRADDTAVYYCARLYYSGWYGDYWGQGTLVTVSS
VL: DIQMTQSPSSLSASVGDRVTITCQASQDINNYLNWYQQKPGKVPNLLIYDASNLETGVPSRFSGSGSGTDFTFTISSLQPEDIATYYCQQYNNPPITFGQGTRLEIK
notes: alloy mouse hybridoma antibody; also called 9A1H6
B9: 1-TC4-I-C10 (scFv)
scFv: EVQLVQSGAEVKKPGESLKISCKGSGYSFTSYWIGWVRQMPGKGLEWMGIIYPGDSDTRYSPSFQGQVTISADKSISTAYLQWSSLKASDTAMYYCAISRTESYVMDVWGQGTTVTVSSGGSGGSGGSGGSQSALTQPRSVSGSPGQSVTISCTGTSSDVGGYNYVSWYQQHPGKAPKLMIYDVTNRPSGVPDRFSASKSDNTATLTVSGVQAEDEADYYCSSYAGSHELFGGGTKLTVL
notes: His-tagged; also called 1867
B10: 14-TC6-I-F03 (scFv)
scFv: QVQLVQSGAEVKKPGASVKVSCKASGYTFTGYYMNWVRQAPGQGLEWMAWINPNTGDTNYAQKFQGRVTMTRDTSINTAYIELSRLTSDDTAVYYCARVGDYYDRSGYYRHDAFDIWGQGTMVTVSSGGSGGSGGSGGSSSELTQDPAVSVALGQTVRITCQGDSLRSYYASWYQQKPGQAPVLVIYGKNNRPSGIPDRFSGSNSGNTATLTISGTQAMDEADYYCQAWDSSTVFGGGTKVTVL
notes: His-tagged
B11: 13-TC7-I-E11 (scFv)
scFv: QVQLQQWGAGLLKPSETLSLTCAVYGGSFSGYYWSWIRQPPGKGLEWIGEINHSGSTNYNPSLKSRVTISVDTSKNQFSLKLSSVTAADTAVYYCARSRRPYWYFDLWGRGTLVTVSSGGSGGSGGSGGSQSVLTQPPSVSGAPGQRVTISCTGSSSNIGAGYDVHWYQQLPGTAPKLLIYGDSNRPSGVPDRFSGSGSGTSASLAITGLQAEDEGDYYCQSFDSNLSRYVFGAGTKLTVL
notes: His-tagged
B12: 9A11 (9A11E8) (antibody, V domains shown)
VH: B4 VH
VL: B2 VL with G23C, G28D, S31I, N45Q, Y87S, H91L, R93S, Q100G, R103K, L104V
notes: IgG in hybridoma supernatant
B13: 13G6 (antibody, V domains shown)
VH: B2 VH
VL: B2 VL
notes: IgG in hybridoma supernatant; also called 13G6E8
B14: 15F8 (15F8D8) (antibody, V domains shown)
VH: B6 VH
VL: B6 VL
notes: IgG in hybridoma supernatant; also called 15F8D9

target: T1, CD70 on cells (CHO-CD70, JVM-3, U266, Raji, THP-1, T cells) (human, UniProt P32970 1-193); assay: on U266 cells
T1 construct: whole, on cells; also called cell-surface CD70
T1 sequence (looked up): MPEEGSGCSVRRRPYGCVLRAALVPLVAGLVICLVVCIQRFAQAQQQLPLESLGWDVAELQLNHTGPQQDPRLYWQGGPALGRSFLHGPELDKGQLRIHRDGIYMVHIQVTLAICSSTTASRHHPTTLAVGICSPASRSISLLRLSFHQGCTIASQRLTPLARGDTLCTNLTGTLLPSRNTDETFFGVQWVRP

cell binding	Binder
106000	B1
389000	B2
310000	B3
351000	B4
8040	B5
213000	B6
30600	B7
324000	B8

target: T1, CD70 on cells (CHO-CD70, JVM-3, U266, …); assay: 1.25 µg/mL scFv on U266 cells
How it was run: (§1)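 Panning of a naïve human library against the CD70 extracellular domain (aa39-193) yielded human scFv antibodies. Binding to high-CD70 (CHO-CD70, JVM3, U266) and low-CD70 (CHO WT, K562) tumour cell lines was recorded line by line.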

cell binding	Binder
48800	B9
1430	B10
32000	B11

target: T1, CD70 on cells (CHO-CD70, JVM-3, U266, …); assay: on JVM-3 cells

cell binding	Binder
121000	B1
479000	B2
322000	B3
410000	B4
8940	B5
234000	B6
31600	B7
401000	B8

target: T2, human CD70, recombinant, N-terminally biotinylated (residues 39-193) (human, UniProt P32970 39-193, N-terminal biotin); assay: CD27 blocking ELISA, 3 µM scFv, anti-His/HRP; also: unit not given here
T2 construct: range 39-193; the same entry is used there; also called biotinylated human CD70; CD70 biotin
T2 sequence (looked up): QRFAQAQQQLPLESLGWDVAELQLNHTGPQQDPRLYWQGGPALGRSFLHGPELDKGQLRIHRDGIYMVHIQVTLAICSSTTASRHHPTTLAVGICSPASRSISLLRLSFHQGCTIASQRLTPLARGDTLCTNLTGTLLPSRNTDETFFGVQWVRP
How it was run: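 Plate-bound CD70 was either exposed to CD27 and His-tagged scFv added together, or pre-incubated with CD27 for 30 minutes before more CD27 and scFv were added. scFv still bound to CD70 was detected with anti-His HRP.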

anti His/HRP	Binder
2.83	B9
2.47	B10
2.29	B11

target: T1, CD70 on cells (CHO-CD70, JVM-3, U266, …); assay: on Raji cells

cell binding	Binder
38800	B1
144000	B2
103000	B3
145000	B4
7310	B5
85100	B6
12100	B7
139000	B8

target: T1, CD70 on cells (CHO-CD70, JVM-3, U266, …); assay: 1.25 µg/mL scFv on CHO-CD70 cells
How it was run: as §1

cell binding	Binder
978000	B9
33400	B10
532000	B11

target: T3, CD70 (UniProt P32970 39-193, limits assumed); assay: Octet (BLI); mAb binding to CD70 with CD27 (competitor CD27)
T3 construct: also called CD70 (100 nM)
T3 sequence (looked up): T2 sequence (looked up)

CD27:CD70 Interaction Neutralization of mAb Binding	Binder
0.0777	B12
0.0585	B13
0.0349	B14

target: T2, human CD70, recombinant, N-terminally …; assay: CD27 blocking ELISA, 3 µM scFv, strep/HRP

strep/HRP	Binder
0.075	B9
0.954	B10
1.42	B11

target: T1, CD70 on cells (CHO-CD70, JVM-3, U266, …); assay: 1.25 µg/mL scFv on JVM-3 cells
How it was run: as §1

cell binding	Binder
73300	B9
1880	B10
80500	B11

target: T3, CD70; assay: Octet (BLI); hybridoma mAb, CD70 at 100 nM

Kd [pM]	Response	koff [s⁻¹]	kon [M⁻¹ s⁻¹]	Binder
2.46	0.429	3.36e-07	137000	B12
3.42	0.409	3.3e-07	96400	B13
4.81	0.382	3.36e-07	69800	B14

target: T2, human CD70, recombinant, N-terminally …; assay: SPR
How it was run: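 Surface plasmon resonance (SPR) was used to determine the affinity (Kd) of human scFv antibodies for recombinant, N-terminally biotinylated human antigen. These antibodies were selected from a naïve human library panned against the CD70 extracellular domain, spanning aa39-193.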

Kd [nM]	Binder
6.17	B9
289	B10
44.7	B11
